Source: a protein production outcome set (Wang et al. 2014)

Test: label from the status in PepcDB records

| Sequence | protein production |
| --- | --- |
| MQASASNSSSYTVNASVLHVRAGSSTSHDIISRVYNGQSLNVIGEENGWYKININGKTGFVSGEFVSKNGTSNSNVSTTGGKNKVTADVLRVRTAPNTSSSVSGRVYEGQTLNVIGQENGWVKINHNGQVGYVSGEFVSGVSSNAGSSNSNTNNNNQESVKPASGNYTVNVSSLRVRTGPSTSHTTVGSVTKGQVVQVVGEVQDWFKINYAGQTAYVSKDYVTKGGSSDNVTQGNNQNNNQNNNVTVQTGGTYVVNATSLRVRTGPATYHSVIGGVLNGTTLNVIGSEGSWFKVNYQGKTGYVSSEFMKFVKGGTTTPEQPKQPEQPNQGAIGDYYINASALNVRSGEGTNYRIIGALPQGQKVQVISENSGWSKINYNGQTGYIGTRYLSKTPVGGAVDNNKPNNNQNNNQNNNNNTGNNSGNSSSILAYAKGMQGVPYVWGGTSANGVDCSGYIYHVFKKFGHNISRQSVAGYWGSLPQTSNPQPGDLIYFQNTYKSGPSHMGIYLGGGSFIQAGDKGVAIASLSNSYWKSHFLGYTKAPLEHHHHHH | not failed |
| MQAVLNFPDLSPELFSISLFGMEFALRWYALAYIAGIVIAWRLAVLATRRAALWPANTPPMAPARIEDLLTWIILGVILGGRLGFVLFYQPAYYLANPTEILMVWQGGMAFHGGLLGVVIAAWLYSLRHNIPKLSLADLITHTVAPGLLLGRLANFINAELWGRPSDLPWAVIFPGPAAQACPGVVGLCARHPSQLYEAALEGLLLGTLLLWLVWRRGALKRPGLITGVFLAGYGLSRFVVEFFRQPDAQFVTPGNPLGLAWQVGEYGLTMGQLLSLPMIALGLWFVLRARAVPA | failed |
| MQDERWNHPLYTTTAINDEELEGHAYIPGGLKVQTSSPMNDHPGTNPEQLLGLSLSTCLEATLEAVEKEHGLPHTGAVRVKVAFIGARAEYQFLVHAQVMVKGVDFDTAKAFTNEIENRCPVSKLLKNSGNYTIETVTDFKD | not failed |
| MQDIFEEIIDYLKGIWLKRRYIIIATWLICPIGWYFVAAMPNVYQSEARVYVDTQSLLRPLLKGLTVETNPDTQIRLMVKTLLSRPNLERISRMTDLDVQASTPAQYEAIIKNLKDNIKISSARRENIYTLSIEDEDPEMAKNIVRSALTVFIENTLGETRSDSDSAQKFLNTQIKDYENRLSNSEARLTSFKQKYSGILPDQSGGYYAKLNGNREKLKAIELDLLENKTRLDSAKKQLAQSVVADTGSDNKIKSENSIQTTYDDRINELEVLLDNLKLRYTEKHPDVIETSRNLEHLNKLRSSEIEKYLAQNNENTGSLKRLSANPVIQEVQIHVNQLENLIASLNVRADNYRQRIIELENRVHTLPEIEAELIALNRGYGITKEKYEELLSRKETAQLAQQADETTDKIQFRVIDPPRKATKPSGPKRFLLFGVVTLIGFAVGIGLSLLMSQLNPVATSTAQLSKITGVPIFGVISANENLGLQQWHKKKTFIFIGSNVLLLCLLVLFVSYFLFPDTIQAPLKRIF | failed |
| MQDILFDFISTYISLTEDEKNALLSLDLFRSVPKGTILLKEGQKSQESYFVLKGCIRIYYIIDGEEKTTAFYTEMDALTPPCVIHNAPSEYFISCIEDSILTVSNLEMEAEINSKFPKFELMCRMLSEELLAKQQIDFDAFKTSSPEQRYLNVLQNRPDLIQRVPQHQLASFLGIKPQSLSRLRARIVDKKS | not failed |
| MQDLTSAAAYYHQSMMMTTAKQNQPELPEQEQLKCPRCDSPNTKFCYYNNYNLSQPRHFCKNCRRYWTKGGALRNIPVGGGTRKSNKRSGSSPSSNLKNQTVAEKPDHHGSGSEEKEERVSGQEMNPTRMLYGLPVGDPNGASFSSLLASNMQMGGLVYESGSRWLPGMDLGLGSVRRSDDTWTDLAMNRMEKN | failed |
| MQDSRPHPHDWNVSTDEAKRIQRRLASEVTERALPDGGETVAGIDVSVRDDTAQAAVSVLRLPELDVVDEATHRCEVPFPYVPGLLSFREMPAVLPALERLHSTPDVFVTDSHGAAHPRRFGLACHLGVLLDAPAIGVAKSILVGAPQGELGPEKGSRVPLVDDGETVGTVLRTRTDVNPVYVSVGHRCTLDGAADLMLDCSPRYKIPEPTRQAHKLSRAEG | failed |
| MQDTPQRGQRSKVRWLVAGLMWAAIAINYIDRTVLSAAAPHIQKEFHLSAVEMGVVMSAFFWSYALLQLPAGILADRFGQKKVLGFAVLWWSLATAVTGLATGFKSLVGLRVALGVGEAGAYPSNAGITSRWFPKQERATVAAIFDSGSKLGSAIALPLIAWLLVTFDWKITFTVAGSLGIVWCVVWALVFRDSPAEHEGVNAAELAHIQKGLPPARGADAPAMPWTKLLTHRNVWAMCIGFFMINYNSYFFITWLPTYLVKERGMGLMEMGFMASLPLFVSMFVEVFAGWASDRVYASGRLSLTATRKLFLVIGLVMASSIGLAAFAQSAVVAVILLCIAKSGTTVAASQVWALPADVAPGNTVSMVAGLQNSVSNMGGVVGPIVTGAIVGATGSFIPALVFSAALIGLAILNYLFLLGKVEPIAFEPNPATLNPNSHGRSNADARA | failed |
| MQEAEAIYQSGMKILNGSTRKNQKREAYRYLQKAAGMNHTKALERVSYALLFGDYLTQNIQAAKEMFEKLTEEGSPKGQTGLGFLYASGLGVNSSQAKALVYYTFGALGGNLIAHMVLGYRYWAGIGVLQSCESALTHYRLVANHVASDISLTGGSVVQRIRLPDEVENPGMNSGMLEEDLIQYYQFLAEKGDVQAQVGLGQLHLHGGRGVEQNHQRAFDYFNLAANAGNSHAMAFLGKMYSEGSDIVPQSNETALHYFKKAADMGNPVGQSGLGMAYLYGRGVQVNYDLALKYFQKAAEQGWVDGQLQLGSMYYNGIGVKRDYKQALKYFNLASQGGHILAFYNLAQMHASGTGVMRSCHTAVELFKNVCERGRWSERLMTAYNSYKDDDYNAAVVQYLLLAEQGYEVAQSNAAFILDQREATIVGENETYPRALLHWNRAASQGYTVARIKLGDYHFYGFGTDVDYETAFIHYRLASEQQHSAQAMFNLGYMHEKGLGIKQDIHLAKRFYDMAAEASPDAQVPVFLALCKLGVVYFLQYIREANIRDLFTQLDMDQLLGPEWDLYLMTIIALLLGTVIAYRQRQHQDIPVPRPPGPRPAPPQQEGPPEQQPPQ | failed |
| MQECTNVQVSKMMLSAPQHLVGGSVSEITPNRDLSLDSMHTSQVKQNIRALWTALVLLSVFFCIELSAGIWSHSLSLLADAEHILSDVAALGLALIASWLSQSISQRTIFGRYKLEVLAALINGISLACIACWIVREALVRLQSPTTEILGVPMLTTALIGVGVNSFNALCLHKCSHKDLNIRGALLHLIADLASSVGAVLAAIAIIWLNWTWADGVISLVVAMLIASFAAYLLIQSVQCLRGQIADISDIACMCPPQSEVCVDRQQAEKLLFPTLEELVQ | failed |
| MQEELAWETDGLLPLERQLHEAARQNNVGRMQELIGRRVNTRARNHVGRVALHWAAGAGHEQAVRLLLEHEAAVDEEDAVGALTEARLCFGMNALLLSAWFGHLRILQILVNSGAKIHCESKDGLTLLHCAAQKGHVPVLAFIMEDLEDVALDHVDKLGRTAFHRAAEHGQLDALDFLVGSGCDHNVKDKEGNTALHLAAGRGHMAVLQRLVDIGLDLEEQNAEGLTALHSAAGGSHPDCVQLLLRAGSTVNALTQKNLSCLHYAALSGSEDVSRVLIHAGGCANVVDHQGASPLHLAVRHNFPALVRLLINSDSDVNAVDNRQQTPLHLAAEHAWQDIADMLLIAGVDLNLRDKQGKTALAVAVRSNHVSLVDMIIKADRFYRWEKDHPSDPSGKSLSFKQDHRQETQQLRSVLWRLASRYLQPREWKKLAYSWEFTEAHVDAIEQQWTGTRSYQEHGHRMLLIWLHGVATAGENPSKALFEGLVAIGRRDLAGWSTMARSQLTATSASRVQMILVPQPPE | failed |
| MQEESHIEEVEIQNKLEVAPALISVHPSQKSVAVAVGSDLRIFDLIENCPVSLVDESDGPIRKESIRAIRYSTSGKLFVSAGDDKLVKIWSADSWRCLNTVCSEKRVSAVAISSDDSHVCYADKFGVVWVIELDGINDGKTLPSKKGALLLSHYCSIITSLEFSPDGRYILSADRDFKIRVTVFPKKPLEGAHEIQSFCLGHSEFITCTAFVSTPELTQGYLMSGSGDSTVRLWDITSGSLLDTCEVSTVAGHAESNENESPTQVTVTDICAIPNSSLAAVAIQSFQGIFLLSCDLTAHTLSITKVIKIPGESFIPTSIAVSASSRLLWMVSGASNLPGSNHPGFSRVRVISCLETESSSILEDEQIPGGTKLLEQLQGKVTIEESVMSAAAEAVRAAMSSLLMKKQYSEEKREFRKRTRNDKKTTR | failed |
| MQEGNFKAGTYSAARQGIGGDVTVTLDIDAQGKVLKSTIDALEETPEVGGEAAIELAKTMTEKQSIQVDGVSGATMTSGAVHEAAEDAYSQAKANLEHHHHHH | not failed |
| MQEIEIFCDGSSLGNPGPGGYAAILRYKDKEKTISGGEEFTTNNRMELRALNEALKILKRPCRITLYSDSQYVCQAINVWLANWQKKNFSKVKNVDLWKEFLEVSKGHSIVAVWIKGHNGHAENERCDSLAKLEAQKRVKTTT | failed |
| MQESVVRVDYDSLETCKNFKPSVGTELIVLEKDIAHARFKGNESMVYEENFVHAGFVLIACNYAALCALNKRHSVVVSNNINFYAPLELNQEALIKAQVIQDGVKKAEIKIEAFVLDIQVLEGMIEIVVFDKKPFKFNFKEELEHHHHHH | failed |
| MQETDSGAGPRTLRRGLMVLAALRDQGPRGLSVTDIARQTGIQRPTIYRLLAALLDAGLVVPLQGTKKYRTQLAADADLAAPNPRVRQMLPVLRRLADRTGDAVFLVVRDGDDSVSLHREIGSYPVQILATYAGKRQPLGVGSGSMALLAALPDEVAHAIVQRNSGRLDEYGGMTPQEMHRLIENTRARGYSVVGNHAVRGALGVGCALLDAQGAPVLAVSVTAIIDRMPAQRQREIAGWIGAELARLAPKA | failed |
| MQFFGGSEISPSPPVPTASGNNAHMMYVFNRNGVCLLYKEWNRPLHTLNPQQDHKLMFGLLFSLKSLTAKMDPVNADKGNLGVPQLPGQGCSFHSFRTNTYKLSFMETPSGIKIILVTHPKTGDLRESLKYIYSLYVEYVVKNPIYSPGSPIKSELFNTALDQYVRSIS | failed |
| MQFGIFTVGDVTPDPTTGRTPTEHERIKAMTTIAKHAEDVGLDVFATGEHHNPPFVPSSPTTMLGYLAAQTEKIILSTSTTLITTNDPVKIAEDYAMLQHLADGRVDLMMGRGNTAPVYPWFGQDIRQGIPLALEHYRLLRRLWDEDVVDWQGQFRTPLQGFTSTPRPLDGIAPFVWHGSIRSPEIAEIAAFHGDGFFANNIFWPKEHYIALINLYRERYEHYGHGRADQAIVGLGGQVFMRRNAKDAVDEFRPYFDNAPVYGHGPSLEDFTEQTPLTVGTPEQVIEKTLTFADFFGDYQRQLFLVDHAGLPLKTVLEQLDLLGGEVVPVLRKEFAARR | failed |
| MQFIKNLQLNKKKDSDSSEQVLTNKKNKMKYEDFNFIRTLGTGSFGRVILATYKNGNYPPVAIKRFEKCKIIRQKQVDHVFSERKILNYINHPFCVNLHGSFKDDSYLYLVLEFVIGGEFFTFLRRNKRFPNDVGCFYAAQIVLIFEYLQSLNIVYRDLKPENLLLDKDGFIKMTDFGFAKIVETRTYTLCGTPEYIAPEILLNVGHGKAADWWTLGIFIYEILVGCPPFYANEPLLIYQKILEGIIYFPKFLDNNCKHLMKKLLSHDLTKRYGNLKKGAQNVKEHPWFSNIDWVNLLNKNVEVPYKPKYKNIFDSSNFERVQEDLTIADKITNENDPFYDW | failed |
| MQFIPPILCKMNGRRQLNMHQQTKRLITISMLSAVAFILMFIKFPIPFLPPYLTLDFGDVPALLATFILGPVAGLIVEFIKNLLNFLFNIGDPVGPVANFLAASSFLLTAYFVTKYKDKIKSQIVGLSIATVVMTIVLSILNYFVLLPLYGMIMNLSDVVENVKIVIVSGVIPFNIIKGIVISIIFILLYNRLKNVLPK | failed |
